The values that follow come from patent publication US20180171001A1.

Common to all, as to test: cell-based or functional assay
For assay [1], the target named is Env of HIV-1 strain X1254_c3 (HIV-1).
The target of assay [2] is Env of HIV-1 strain R1166.c1 (HIV-1).
For assay [3], the target named is Env of HIV-1 strain 3016.v5.c45 (HIV-1).
Assay [4] concerns the target Env of HIV-1 strain H086.8 (HIV-1).
The target in assay [5] is Env of HIV-1 strain YU2.DG (HIV-1).
Assay [6] concerns the target Env of HIV-1 strain 3415.v1.c1 (HIV-1).
Assay [7] has as its target Env of HIV-1 strain Du172.17 (HIV-1).
Assay [8] deals with Env of HIV-1 strain REJO4541.67 (HIV-1).
Assay [9] deals with Env of HIV-1 strain ZM53M.PB12 (HIV-1).
Assay [10] addresses Env of HIV-1 strain 250-4 (HIV-1).
Assay [11] has as its target Env of HIV-1 strain 3365.v2.c20 (HIV-1).
The target in assay [12] is Env of HIV-1 strain ZM109F.PB4 (HIV-1).
The target of another assay is Env of MuLV.
For assay [13], the target named is Env of HIV-1 strain PVO.4 (HIV-1).
For assay [14], the target named is Env of HIV-1 strain 231965.c1 (HIV-1).
Assay [15] has as its target Env of HIV-1 strain 251-18 (HIV-1).

Where a chain is given by its changes, count along the chain named. Bounds are passed on as bounds.

B1: γ59κ3 (antibody, V domains shown)
VH: QIHLVQSGTEVKKPGSSVTVSCKAYGVNTFGLYAVNWVRQAPGQGLEYIGQIWRWKSSASHHFRGRVLISAVDLTGSSPPISSLEIKNVTSDDTAVYFCTTTSTYDEWSDLHHDGVMAFSSWGQGTLISVSA
VL: DIQMTQSPSTLSASIGDTVRISCRASQSITGNWLAWYHQRPGKAPRLLIYRGSRLLGGVPSRFSGSAAGTDFTLTIANLQAEDFGTFYCQQYDTYPGTFGQGTKVEVKR
As for B1, the neutralization IC50 is 3.39 µg/mL in [1]; 24.2 µg/mL in assay [2]; over 15 µg/mL in [3]; over 15 µg/mL in assay [4]; 8.97 µg/mL in [5]; over 15 µg/mL in [6]. The neutralization IC50 in [7] is over 15 µg/mL; in assay [8] it was 8.54 µg/mL; in assay [9], over 15 µg/mL; in [10], over 15 µg/mL; in assay [11], over 15 µg/mL; in [12] it was over 15 µg/mL. For the same molecule, the neutralization IC50 was over 30 µg/mL with Env of MuLV, over 15 µg/mL in assay [13], over 15 µg/mL in assay [14] and over 15 µg/mL in assay [15].

B2: γ3κ3 (antibody, V domains shown)
VH: QIHLVQSGTEVKKPGSSVTVSCKAYGVNTFGLYAVSWVRQAPGQRLEYIGQIRRWKSSASHHFRGRVTVSAVDPTGSSPPISSLEIRDLTTDDTAVYFCTTTSTSDYWSGLHNERGTAFSSWGQGTLISVSA
VL: B1 VL
Turning to B2, the neutralization IC50 in [1] was 1.82 µg/mL; in assay [2] it was 2.2 µg/mL; in assay [3], 0.347 µg/mL; in assay [4] it was 3.31 µg/mL; in [5], 0.42 µg/mL; in assay [6], over 15 µg/mL. Also, the neutralization IC50 was over 15 µg/mL in assay [7]; 0.26 µg/mL in assay [8]; over 15 µg/mL in assay [9]; over 15 µg/mL in [10]; over 15 µg/mL in assay [11]; over 15 µg/mL in assay [12]. Besides, the neutralization IC50 with Env of MuLV is over 30 µg/mL; in assay [13] it was 0.17 µg/mL; in [14], 0.727 µg/mL; in assay [15], over 15 µg/mL.

B3: 8ANC3630 (antibody, V domains shown)
VH: B1 VH with G45S, V89L, E107R, D110G
VL: B1 VL with N32G
Regarding B3, the neutralization IC50 in assay [1] came to 2.38 µg/mL; in assay [2], 1.45 µg/mL; in assay [3] it was 0.136 µg/mL; in assay [4] it was 0.3 µg/mL; in assay [5], 0.468 µg/mL; in assay [6] it was 28 µg/mL. Besides, the neutralization IC50 in [7] was over 30 µg/mL; in assay [8], 2.65 µg/mL; in assay [9], over 30 µg/mL; in assay [10] it was over 30 µg/mL; in assay [11], over 30 µg/mL; in [12] it was over 30 µg/mL. The neutralization IC50 is over 30 µg/mL in the assay with Env of MuLV, 0.102 µg/mL in assay [13], 0.375 µg/mL in assay [14] and 0.73 µg/mL in assay [15].

B4: 8ANC3484 (antibody, V domains shown)
VH: B1 VH with G45S, V89L, E107R, D110G
VL: B1 VL with L34V, H38Q, S53A, R54A, S64R, A77G
For B4, the neutralization IC50 was determined as 2.19 µg/mL in assay [1]; 1.03 µg/mL in assay [2]; 0.131 µg/mL in assay [3]; 0.394 µg/mL in assay [4]; 0.461 µg/mL in assay [5]; 0.589 µg/mL in [6]. In addition, the neutralization IC50 was 4.01 µg/mL in [7]; 0.117 µg/mL in assay [8]; 11.6 µg/mL in [9]; over 30 µg/mL in assay [10]; over 30 µg/mL in assay [11]; over 30 µg/mL in [12]. For the same molecule, the neutralization IC50 with Env of MuLV was over 30 µg/mL; in [13] it was 0.077 µg/mL; in assay [14], 0.294 µg/mL; in assay [15], 0.391 µg/mL.
